Laboratory results published in patent publication US20150218261A1 (AbbVie / Abbott, published 2015).

T1: platelet factor 4 (PF-4) in Cynomolgus monkey plasma (Cynomolgus monkey (Macaca fascicularis), UniProt A0A7N9D5L6 32-101)
T1 construct: Endogenous protein of the plasma; detected with rabbit polyclonal anti-HPF4 (Abcam ab9561); also called CXCL4
T1 sequence: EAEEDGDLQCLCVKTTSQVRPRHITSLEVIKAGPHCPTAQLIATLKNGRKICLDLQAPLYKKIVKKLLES

T2: Aβ(20-42) globulomer (human)
T2 construct: Range counted on the Aβ peptide; also called amyloid-beta (20-42) globulomer
T2 peptide: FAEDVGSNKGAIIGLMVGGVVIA

B1: anti-Aβ monoclonal antibody clone m4D10 (antibody, V domains shown)
VH: QVQLKQSGPSLIQPSQSLSITCTVSGFSLTSYGVHWVRQSPGKGLEWLGVIWRGGRIDYNAAFMSRLSITKDNSKSQVFFKMNSLQADDTAIYYCARNSDVWGTGTTVTVSS
VL: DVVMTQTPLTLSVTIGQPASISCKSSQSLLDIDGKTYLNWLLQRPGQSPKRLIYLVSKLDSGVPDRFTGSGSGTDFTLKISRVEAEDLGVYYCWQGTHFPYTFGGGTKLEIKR
notes: Murine monoclonal antibody; also called mAb m4D10; murine 4D10
B2: humanized monoclonal anti-Aβ antibody 4D10hum#1 (antibody, human IgG1, kappa, V domains shown)
VH: EVQLVESGGGLVQPGGSLRLSCAVSGFTLSSYGVHWVRQAPGKGLEWLGVIWRGGRIDYNAAFMSRLTISKDNSKSTVYLQMNSLRAEDTAVYYCARNSDVWGQGTTVTVSS
VL: DVVMTQTPLSLPVTPGQPASISCKSSQSLLDIDGKTYLNWLLQKPGQSPQRLIYLVSKLDSGVPDRFSGSGSGTDFTLKISRVEAEDVGVYYCWQGTHFPYTFGQGTKLEIKR
notes: also called mAb 4D10hum#1; mAb 4D10 hum#1
B3: humanized monoclonal anti-Aβ antibody 4D10hum#2 (antibody, human IgG1, kappa, V domains shown)
VH: EVQLQESGPGLVKPSETLSLTCTVSGFSLSSYGVHWVRQPPGKGLEWLGVIWRGGRIDYNAAFMSRLTISKDTSKSQVSLKLSSVTAADTAVYYCARNSDVWGQGTTVTVSS
VL: B2 VL
notes: also called mAb 4D10hum#2; mAb 4D10 hum#2
B4: 4D10#3 (chimeric heavy chain; light chain as 4D10hum#1 and #2) (antibody, human IgG1, kappa, V domains shown)
VH: B1 VH
VL: B2 VL
notes: Heavy chain is a chimera of m4D10 VH and the human Ig gamma-1 constant region; light chain is the humanized one; also called antibody #3
B5: 4D10#5 (heavy chain as 4D10hum#2; chimeric light chain) (antibody, human IgG1, kappa, V domains shown)
VH: B3 VH
VL: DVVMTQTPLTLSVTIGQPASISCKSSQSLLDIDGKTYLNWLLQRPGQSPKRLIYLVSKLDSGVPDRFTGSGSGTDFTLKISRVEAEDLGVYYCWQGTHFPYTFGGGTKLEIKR
notes: Light chain is a chimera of m4D10 VL and the human Ig kappa constant region; also called antibody #5
B6: 4D10#4 (heavy chain as 4D10hum#1; chimeric light chain) (antibody, human IgG1, kappa, V domains shown)
VH: B2 VH
VL: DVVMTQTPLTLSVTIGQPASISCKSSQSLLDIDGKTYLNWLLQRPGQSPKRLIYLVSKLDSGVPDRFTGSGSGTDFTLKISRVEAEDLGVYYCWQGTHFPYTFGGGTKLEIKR
notes: Light chain is a chimera of m4D10 VL and the human Ig kappa constant region; also called antibody #4

Assays:
[1] = biological target: T3, human platelet factor 4 (PF-4) in HPF4-spiked human plasma (human); experiment: aligned sandwich ELISA (R4), HPF4-spiked human plasma; AUC of reference anti-HPF4 antibody (ab49735) against AUC of this antibody
T3 construct: Human EDTA plasma pool (4 donors) spiked with 10 ng/ml human PF4 (Molecular Innovation cat. no. HPF4); also called human PF4; CXCL4

[2] = biological target: T3, human platelet factor 4 (PF-4) in …; experiment: sandwich ELISA (R2), HPF4-spiked human plasma; AUC of reference anti-HPF4 antibody (ab49735) against AUC of this antibody
[3] = biological target: T1, platelet factor 4 (PF-4) in Cynomolgus …; experiment: sandwich ELISA (E1), cynomolgus plasma; AUC of reference anti-HPF4 antibody (ab49735) against AUC of this antibody
[4] = biological target: T1, platelet factor 4 (PF-4) in Cynomolgus …; experiment: sandwich-ELISA: antibody coated on the plate, dilution series of cynomolgus plasma, bound PF-4 detected (OD450nm)
[5] = biological target: T1, platelet factor 4 (PF-4) in Cynomolgus …; experiment: aligned sandwich ELISA (E3), cynomolgus plasma; AUC of reference anti-HPF4 antibody (ab49735) against AUC of this antibody
Procedure: (§1) Then 10 μl 10 mg/ml trypsin inhibitor in H₂O were added. After incubation for 10 min at room temperature the sample was filtrated through a 0.22 μm filter (Millipore cat. no. SLGS0250S).
(§2) Procedure used: [0437] 1. 100 μl of the respective aligning antibody solution (anti-human IgG for experiment E3; anti-murine IgG for reference experiment R3) per well were applied and incubated overnight at 4° C. [0438] 2. The antibody solution was discarded and the wells were washed three times with 250 μl PB ST-buffer. [0439] 3. 265 μl blocking solution per well were added and incubated 2 h at room temperature. [0440] 4. The blocking solution was discarded and the wells were washed three times with 250 μl PBST buffer. [0441] 5. After preparation of the dilution series of each binding antibody, 100 μl per well of these antibody dilutions were applied to the plate. The plate was incubated 2 h at room temperature. [0442] 6. […] Plate colour was monitored during development (5-15 min at ambient temperature) and the reaction was terminated by adding 50 μl/well of stop solution when an appropriate colour had developed. […] The absorbance was read at 450 nm.
(§3) Data analysis was performed as described for sandwich-ELISA with cynomolgus plasma in Example 3.1, except that not plasma dilution factors but the amounts of antibody (expressed in ng/ml) were used as X-values and thus concentration effect curves were calculated.

[6] = biological target: T3, human platelet factor 4 (PF-4) in …; experiment: aligned sandwich ELISA (E4), HPF4-spiked human plasma; AUC of reference anti-HPF4 antibody (ab49735) against AUC of this antibody
[7] = biological target: T3, human platelet factor 4 (PF-4) in …; experiment: sandwich ELISA (E2), HPF4-spiked human plasma; AUC of reference anti-HPF4 antibody (ab49735) against AUC of this antibody
Aβ(20-42) globulomer [8] = biological target: T2, Aβ(20-42) globulomer; experiment: SPR (BIAcore); antibody captured on goat anti-human IgG Fc, soluble globulomer injected; lot #1773659, average
Procedure: (§4) Interaction of the purified humanized antibodies 4D10hum#1 and 4D10hum#2 to Aβ(20-42) globulomer was evaluated by surface plasmon resonance (SPR) analysis using a BIAcore device. Goat anti-human IgG Fc (10,000 RU) was directly immobilized on a CMS sensor chip by an amine coupling procedure according to the manufacturer's instructions (BIAcore). The respective 4D10hum antibody was captured on the goat anti-human IgG Fc coated surface of the chip by injecting 5.0 μl of a 1 μg/ml 4D10hum antibody solution at a flow rate of 10-15 μl/min. Interaction of soluble Aβ(20-42) globulomer with the 4D10hum antibody on the sensor chip was examined by injecting globulomer solutions (concentration range: 20-0.3125 nM) at a flow rate of 50 μl/min. The association rate was monitored for 5.0 min and the dissociation rate was monitored for 10 min. From the resulting sensorgrams the association rate constant (kₒₙ), dissociation rate constant (koff) and equilibrium dissociation constant (KD) were determined using to the manufacturer's software and instructions. The kinetic and equilibrium constants determined for three different preparations of 4D10hum#1 and two different preparations of 4D10hum#2 are summarized in table 7. […] The heavy chains of antibodies #4 and #5 are as in 4D10hum#1 or #2, and the light chains are chimeras of m4D10 VL (SEQ ID NO:24) and the human Ig kappa constant region (SEQ ID NO:27). The light chains of antibody #3 are as in 4D10hum#1 and #2, and the heavy chains are chimeras of m4D10 VH (SEQ ID NO23) and the human Ig gamma-1 constant region (SEQ ID NO:25).

Aβ(20-42) globulomer [9] = biological target: T2, Aβ(20-42) globulomer; experiment: SPR (BIAcore); antibody captured on goat anti-human IgG Fc, soluble globulomer injected; lot #1773659, experiment 1
Procedure: as §4

Aβ(20-42) globulomer [10] = biological target: T2, Aβ(20-42) globulomer; experiment: SPR (BIAcore); antibody captured on goat anti-human IgG Fc, soluble globulomer injected; lot #1759119, average
Procedure: as §4

Aβ(20-42) globulomer [11] = biological target: T2, Aβ(20-42) globulomer; experiment: SPR (BIAcore); antibody captured on goat anti-human IgG Fc, soluble globulomer injected; lot #1759119, experiment 1
Procedure: as §4

Aβ(20-42) globulomer [12] = biological target: T2, Aβ(20-42) globulomer; experiment: SPR (BIAcore); antibody captured on goat anti-human IgG Fc, soluble globulomer injected; lot #1759119, experiment 2
Procedure: as §4

Aβ(20-42) globulomer [13] = biological target: T2, Aβ(20-42) globulomer; experiment: SPR (BIAcore); antibody captured on goat anti-human IgG Fc, soluble globulomer injected; lot #1773659, experiment 2
Procedure: as §4

[14] = biological target: T1, platelet factor 4 (PF-4) in Cynomolgus …; experiment: aligned sandwich ELISA (E3), cynomolgus plasma; AUC was 0, ratio could not be calculated
Procedure: as §1, §2, §3

Aβ(20-42) globulomer [15] = biological target: T2, Aβ(20-42) globulomer; experiment: SPR (BIAcore); antibody captured on goat anti-human IgG Fc, soluble globulomer injected; experiment 2
Procedure: as §4

Aβ(20-42) globulomer [16] = biological target: T2, Aβ(20-42) globulomer; experiment: SPR (BIAcore); antibody captured on goat anti-human IgG Fc, soluble globulomer injected; experiment 1
Procedure: as §4

Aβ(20-42) globulomer [17] = biological target: T2, Aβ(20-42) globulomer; experiment: SPR (BIAcore); antibody captured on goat anti-human IgG Fc, soluble globulomer injected; average
Procedure: as §4

Binder	Ratio HPF4/aAβ antibody [3]	binding result [4]	Ratio HPF4/aAβ antibody [6]	Ratio HPF4/aAβ antibody [7]	Kd (Aβ(20-42) globulomer [15]) [nM]	koff (Aβ(20-42) globulomer [15]) [s⁻¹]	kon (Aβ(20-42) globulomer [15]) [M⁻¹ s⁻¹]	Kd (Aβ(20-42) globulomer [16]) [nM]	koff (Aβ(20-42) globulomer [16]) [s⁻¹]	kon (Aβ(20-42) globulomer [16]) [M⁻¹ s⁻¹]	Kd (Aβ(20-42) globulomer [17]) [nM]	koff (Aβ(20-42) globulomer [17]) [s⁻¹]	kon (Aβ(20-42) globulomer [17]) [M⁻¹ s⁻¹]	other results
B1														Ratio HPF4/aAβ antibody [1]: 27; Ratio HPF4/aAβ antibody [2]: 21
B2	64	no binding (tested: plasma dilution 1:3.16)	23	30										Ratio HPF4/aAβ antibody [5]: 158
B3	36	no binding (tested: plasma dilution 1:3.16)	75	17										Kd (Aβ(20-42) globulomer [8]): 0.482 nM; koff (Aβ(20-42) globulomer [8]): 0.000283 s⁻¹; kon (Aβ(20-42) globulomer [8]): 597000 M⁻¹ s⁻¹; Kd (Aβ(20-42) globulomer [9]): 0.529 nM; koff (Aβ(20-42) globulomer [9]): 0.000268 s⁻¹; kon (Aβ(20-42) globulomer [9]): 507000 M⁻¹ s⁻¹; Kd (Aβ(20-42) globulomer [10]): 0.532 nM; koff (Aβ(20-42) globulomer [10]): 0.000301 s⁻¹; kon (Aβ(20-42) globulomer [10]): 570000 M⁻¹ s⁻¹; Kd (Aβ(20-42) globulomer [11]): 0.454 nM; koff (Aβ(20-42) globulomer [11]): 0.00027 s⁻¹; kon (Aβ(20-42) globulomer [11]): 593000 M⁻¹ s⁻¹; Kd (Aβ(20-42) globulomer [12]): 0.609 nM; koff (Aβ(20-42) globulomer [12]): 0.000332 s⁻¹; kon (Aβ(20-42) globulomer [12]): 546000 M⁻¹ s⁻¹; Kd (Aβ(20-42) globulomer [13]): 0.435 nM; koff (Aβ(20-42) globulomer [13]): 0.000298 s⁻¹; kon (Aβ(20-42) globulomer [13]): 686000 M⁻¹ s⁻¹; Ratio HPF4/aAβ antibody [14]: > 158
B4					0.669	0.000349	522000	0.525	0.000317	603000	0.597	0.000333	563000	
B5					0.619	0.000292	472000	0.53	0.000262	494000	0.575	0.000277	483000	
B6					0.657	0.000332	506000	0.635	0.000294	462000	0.646	0.000313	484000	
